Measured values: the supplement of paper PMC9170038

Test system: K4 kissing-loop RNA reporter
Test: apparent KD of K4 kissing-loop reporter; higher = weaker reporter binding
Conditions: Eterna round: R107
Protocol: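 RNA-MaP round R107: designed RNA switches with theophylline, tryptophan, arginine or FMN aptamers are transcribed on-chip within common flanks. They are titrated with a labelled K4 kissing-loop RNA reporter in RNA-MaP buffer (100 mM Tris pH 7.5, 80 mM KCl, 4 mM MgCl2), without ligand or with the indicated ligand. Median apparent KD per design.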

[1] = input ligand: theophylline 20 uM
[2] = input ligand: tryptophan 2.4 mM
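Further: bound reporter read as fluorescence of individual clusters on recovered sequencing chips by microscopy, with normalized cluster intensities fitted with a binding model.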

Sequence | apparent KD of K4 kissing-loop reporter (input ligand: FMN 200 uM) [nM] | apparent KD of K4 kissing-loop reporter (input ligand: arginine 13.2 mM) [nM] | apparent KD of K4 kissing-loop reporter (input ligand: none) [nM] | apparent KD of K4 kissing-loop reporter [1] [nM] | apparent KD of K4 kissing-loop reporter [2] [nM]
CGCAGUGAUGUUGCUAUUAUUCUUGGUUAACGAGGACCGGUACGGCCGCCACUCGAUUUCUGUCUAGUCCAGUGUUUUUUUGAGU [whbob_EX_Tryp_A_t7] | 363 | 464 | 439 | 492 | 263
GGUAGCAUGGCGGCCGCCACUGUCUACUGAGGCGGAGUGAUGUUCCGGUUUAAAUAACAAGUUCACAGGACCGGGCCAUGCUACC | 382 | 400 | 462 | 471 | 141
GAACAUAGUAAAGGAUAUUCCUGCCUCGCGCGAUUGAUUAGUGAUGUUGACGAUAUCGCUUUGAGGGAAGAAGGUUAACAAGUCA [theeternabot_exclusion_KL_FMN_B_4] | 761 | 659 | 678 | 478 | 596
CGCAGUGAUGUUGCUAUUAUUCUUGAUUAACGAGGACCGGUACGGCCGCCACUCGGUUUCUAUCUGAUCCAGCGUUUUGUUGAGU [#23 K4 Tryptophan A Exclusion] | 474 | 562 | 638 | 620 | 335
CCGAAGAACCAGUGAUGUUGGUUGACUAGACAGGAUAUGAGCAACAUCAGAAGGGUCUGGCUUCGGGAGUGAGUCGCGCUGACUU [Reverigeed] | 260 | 192 | 319 | 254 | 314
AAACGCUUGAAUAACAAGCGAAAUAAAAUUCGAGGACCGGUACGGCCGCCACUCGGGCUAACUGCGAGUGAUGUUCGAAAAUAAA [Mat - Mod of OpenEnded 3 - D17] | 156 | 191 | 257 | 405 | 73.2
GCAGUCCGGACGGCCGCCACUAUCCGUAAAGUGAUGUUUUACGAACAAUCGAUUGCAUAUCAGAAUAGGACCGGGUCCGUCGACC [theeternabot_sameState_KL_Trp_B_15] | 228 | 185 | 212 | 170 | 201
UGAUAGGACAGAAGGAGCGGUAGUGAUGUUACCAAAAGGGUAAGGUGUCAAAAGACACCCUACCAGGUAGGUCGCUGUCCUAUCU | 110 | 96 | 104 | 84.3 | 82.8
UGCCGGAAGGCGAGCGCUCCCACUCCGGAAGGAGCGCCCGUAAGGGCAGGUAGGUCGCCGGAGUGAUGUUCCGGUGGAGGGCUCG [#2 Exclusion - Arginine A Attempt #22 (Inspired by Omei)] | 203 | 128 | 193 | 185 | 244
AUUAAUAUCACGGCCGCCACUGAAUAUUGUUUUUAUAUUUAGAAAUCUUGCCAGUGAUGUUGGAUCAGGACCGGGUGAGUUUAUA [JR_SSTryptoB_Sub006] | 613 | 439 | 463 | 424 | 444
UGACUGGACUGAAGGAGCGCUAAACUCCUAGUGAUGUUAGGGAAACAAGACAAAGUCUUGAGGCAGGUAGGUCGCAGUCUAGUCU [FiskerMod 3 - Jieux - Same State - Arginine B] | 287 | 199 | 264 | 272 | 225
UGUCAUGGAAACAUGAACGUUGAAAUAAAUCGAGGACCGGUACGGCCGCCACUCGUAUAGCGGUCAGUGAUGUUGACUGUAAUAA [KL-SSTryp-A form2 sub9] | 94.9 | 112 | 110 | 132 | 98.7
CGAUGUUCCUGGGAUACCAGUCGGAGUCUCAGAGCUCGGAGUGAUGUUCUGGGAUGUUUCGGCCCUUGGCAGCUCUGGGACUCCU [#2 Exclusion - Theophylline B Attempt #22 (HarryS)] | 881 | 630 | 819 | 840 | 662
UUUAUAUUCUGAGGAUAUCGUAUUAAUGAAGUGAUGUUUCAGUAUAUUCUAAUUAUAUAUAAUUUUCGAGAAGGCAGUAUUAUUU [JR_Nu3_SSFMNB_Sub028] | 187 | 243 | 246 | 320 | 196
UGAUACCAGACGGCCGCCACUCCCGCAGGUCAAAGACCUGCGAAGAAGGUUCUUCAGUGAUGUUGGAGGACCGGGUCUGGUAUCU [FiskerMod 22 - Jieux - Exclusion - Tryptophan B] | 217 | 168 | 207 | 213 | 369
CUUGGAAGGACGGCCGCCACUCGACGGAGUGAUGUUCCGUGUGGGUAGCGCAGUGAUGUUGUGUCGAGGACCGGGUCCUAGGAAU [Exclusion Tryptophan B GF 28] | 181 | 115 | 143 | 160 | 77.7
AUCCAUAGUGAUGUUGUGAGCGGAGGCACCAAGGAUAUUGCCAGCCCAAGAAGGUGGGUCCCACACACCAGGCAUACAAGUCCGG [theeternabot_exclusion_KL_FMN_A_43] | 1040 | 845 | 1160 | 944 | 837
UGACUGGACUGAAGGAGCGCGCGAGACAAAGUCUCGAACUGCUAGUGAUGUUAGCAAAUAACGCAGGUAGGUCGCAGUCUAGUCU [ArgBS 11 #SwitchBubble #StaticStem #DoubleMagnet] | 135 | 100 | 137 | 92.3 | 124
UAUCGAGUGAUGUUCGAUGUAGUGCAUUCAGAGGAUAUAGGAUGGGCUAGAAGGCUGAAAAGUGCUUCGAGUGAUGUUCGAAGAU [Exclusion FMN A GF 5] | 63.8 | 49.2 | 80.3 | 57.6 | 65.3
GCCGUACGCAUGGAUACCAGUUGCGAAGUGAUGUUUCGGGCGAUCAAAGGAUCGCCAGACAACCCUUGGCAGCCAUGCGUACGGC | 757 | 506 | 1600 | 769 | 674
UCUCAGGAGUGAUGUUCCGUAGGUGGAAGGAAGGAUAUCUAAUGGCAGAGAAGGUCCAUCCUUGCUCGUAUCAGUGCCGGGAAGC [theeternabot_exclusion_KL_FMN_A_13] | 282 | 251 | 232 | 304 | 168
